Tests used:
Assay in all cases: cell-based or functional assay
[1] = target: K^bm3 complexed with Q7 peptide (SEQ ID NO:2) (mouse) (UniProt P01901)
[2] = target: H-2K^b wild type complexed with Q7 peptide SIINFEQL (SEQ ID NO:2) (mouse) (UniProt P01901)
[3] = target: H-2K^b wild type complexed with SIINFEKL (SEQ ID NO:1) (mouse; chicken) (UniProt P01901)

Day 14 Diabetes in B6-RIP-OVA mice given naive OT-1 spleen cells and peptide-pulsed RMAS cells [1]: 0 of 4 mice | Day 21 Diabetes after day 15 challenge with TMEV-SIINFEKL [1]: 3 of 4 mice | diabetes (>300 mg/dL blood glucose) after TMEV-L/OVA challenge on day 15 (FIG. 4) [1]: 65 % of mice | Day 14 Diabetes in B6-RIP-OVA mice given naive OT-1 spleen cells and peptide-pulsed RMAS cells [2]: 0 of 4 mice | Day 21 Diabetes after day 15 challenge with TMEV-SIINFEKL [2]: 0 of 4 mice | Day 14 Diabetes in B6-RIP-OVA mice given naive OT-1 spleen cells and peptide-pulsed RMAS cells [3]: 0 of 2 mice | Day 21 Diabetes after day 15 challenge with TMEV-SIINFEKL [3]: 2 of 2 mice
Substance: OT-1 T cell receptor (TCR)
